Measurements published in the supplement of paper PMC5998384.

Legend:
HeLa Kyoto [1] = experiment: solubility change mitosis vs G1/S (difference of NP-40 vs SDS log2 ratios) (log2 ratio difference); higher = more soluble in mitosis
HeLa Kyoto [2] = experiment: melting temperature (median over replicates), in situ; higher = more thermally stable
HeLa Kyoto [3] = experiment: solubility in G1/S (NP-40 vs SDS abundance) (log2 ratio); higher = more soluble; details: cell cycle stage: G1/S
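Throughout, for melting temperature (median over replicates), in situ: HeLa Kyoto cells synchronized by double thymidine or nocodazole block, proteins quantified by TMT10plex mass spectrometry, three independent biological replicates.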
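Throughout, for solubility change mitosis vs G1/S (difference of NP-40 vs SDS log2 ratios): synchronized HeLa Kyoto cells (double thymidine block for G1/S, nocodazole release for mitosis), protein amounts in NP-40 versus SDS lysates quantified by mass spectrometry, three biological replicates.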
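Throughout, for solubility in G1/S (NP-40 vs SDS abundance): HeLa Kyoto cells arrested at G1/S by double thymidine block, proteins quantified by TMT10plex mass spectrometry in mild NP-40 versus SDS extracts, three biological replicates.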

Chain of UBE2D3 (chain, as listed by the source): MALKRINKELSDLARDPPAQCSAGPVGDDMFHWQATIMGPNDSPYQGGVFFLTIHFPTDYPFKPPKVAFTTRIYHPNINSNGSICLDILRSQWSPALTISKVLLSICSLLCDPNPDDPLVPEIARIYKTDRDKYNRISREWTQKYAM

Substance | solubility change mitosis (log2) (HeLa Kyoto [1]) | melting temperature (HeLa Kyoto [2]; cell cycle stage: mitosis) [°C] | solubility in G1/S (log2) (HeLa Kyoto [3]) | melting temperature (HeLa Kyoto [2]; cell cycle stage: G1/S) [°C]
MSEAMDQPAGGPGNPRPGEGDDGSMEPGTCQELLHRLRELEAENSALAQANENQRETYERCLDEVANHVVQALLNQKDLREECIKLKKRVFDLERQNQMLSALFQQKLQLTTGSLPQIPLTPLQPPSEPPASPSLSSTEGPAAPLPLGHCAGQREVCWEQQLRPGGPGPPAAPPPALDALSPFLRKKAQILEVLRALEETDPLLLCSPATPWRPPGQGPGSPEPINGELCGPPQPEPSPWAPCLLLGPGNLGGLLHWERLLGGLGGEEDTGRPWGPSRGPPQAQGTSSGPNCAPGSSSSSSSDEAGDPNEAPSPDTLLGALARRQLNLGQLLEDTESYLQAFLAGAAGPLNGDHPGPGQSSSPDQAPPQLSKSKGLPKSAWGGGTPEAHRPGFGATSEGQGPLPFLSMFMGAGDAPLGSRPGHPHSSSQVKSKLQIGPPSPGEAQGPLLPSPARGLKFLKLPPTSEKSPSPGGPQLSPQLPRNSRIPCRNSGSDGSPSPLLARRGLGGGELSPEGAQGLPTSPSPCYTTPDSTQLRPPQSALSTTLSPGPVVSPCYENILDLSRSTFRGPSPEPPPSPLQVPTYPQLTLEVPQAPEVLRSPGVPPSPCLPESYPYGSPQEKSLDKAGSESPHPGRRTPGNSSKKPSQGSGRRPGDPGSTPLRDRLAALGKLKTGPEGALGSEKNGVPARPGTEKTRGPGKSGESAGDMVPSIHRPLEQLEAKGGIRGAVALGTNSLKQQEPGLMGDPGARVYSSHSMGARVDLEPVSPRSCLTKVELAKSRLAGALCPQVPRTPAKVPTSAPSLGKPNKSPHSSPTKLPSKSPTKVVPRPGAPLVTKESPKPDKGKGPPWADCGSTTAQSTPLVPGPTDPSQGPEGLAPHSAIEEKVMKGIEENVLRLQGQERAPGAEVKHRNTSSIASWFGLKKSKLPALNRRTEATKNKEGAGGGSPLRREVKMEARKLEAESLNISKLMAKAEDLRRALEEEKAYLSSRARPRPGGPAPGPNTGLGQVQGQLAGMYQGADTFMQQLLNRVDGKELPSKSWREPKPEYGDFQPVSSDPKSPWPACGPRNGLVGPLQGCGKPPGKPSSEPGRREEMPSEDSLAEPVPTSHFTACGSLTRTLDSGIGTFPPPDHGSSGTPSKNLPKTKPPRLDPPPGVPPARPPPLTKVPRRAHTLEREVPGIEELLVSGRHPSMPAFPALLPAAPGHRGHETCPDDPCEDPGPTPPVQLAKNWTFPNTRAAGSSSDPLMCPPRQLEGLPRTPMALPVDRKRSQEPSRPSPTPQGPPFGGSRTPSTSDMAEEGRVASGGPPGLETSESLSDSLYDSLSSCGSQG [NCKAP5L] | -0.128 | 50.4 | 0.0838 | 
MISQFFILSSKGDPLIYKDFRGDSGGRDVAELFYRKLTGLPGDESPVVMHHHGRHFIHIRHSGLYLVVTTSENVSPFSLLELLSRLATLLGDYCGSLGEGTISRNVALVYELLDEVLDYGYVQTTSTEMLRNFIQTEAVVSKPFSLFDLSSVGLFGAETQQSKVAPSSAASRPVLSSRSDQSQKNEVFLDVVERLSVLIASNGSLLKVDVQGEIRLKSFLPSGSEMRIGLTEEFCVGKSELRGYGPGIRVDEVSFHSSVNLDEFESHRILRLQPPQGELTVMRYQLSDDLPSPLPFRLFPSVQWDRGSGRLQVYLKLRCDLLSKSQALNVRLHLPLPRGVVSLSQELSSPEQKAELAEGALRWDLPRVQGGSQLSGLFQMDVPGPPGPPSHGLSTSASPLGLGPASLSFELPRHTCSGLQVRFLRLAFRPCGNANPHKWVRHLSHSDAYVIRI [AP4M1] | -0.0241 |  | -0.0981 | 49.2
MALLFLLPLVMQGVSRAEMGTADLGPSSVPTPTNVTIESYNMNPIVYWEYQIMPQVPVFTVEVKNYGVKNSEWIDACINISHHYCNISDHVGDPSNSLWVRVKARVGQKESAYAKSEEFAVCRDGKIGPPKLDIRKEEKQIMIDIFHPSVFVNGDEQEVDYDPETTCYIRVYNVYVRMNGSEIQYKILTQKEDDCDEIQCQLAIPVSSLNSQYCVSAEGVLHVWGVTTEKSKEVCITIFNSSIKGSLWIPVVAALLLFLVLSLVFICFYIKKINPLKEKSIILPKSLISVVRSATLETKPESKYVSLITSYQPFSLEKEVVCEEPLSPATVPGMHTEDNPGKVEHTEELSSITEVVTTEENIPDVVPGSHLTPIERESSSPLSSNQSEPGSIALNSYHSRNCSESDHSRNGFDTDSSCLESHSSLSDSEFPPNNKGEIKTEGQELITVIKAPTSFGYDKPHVLVDLLVDDSGKESLIGYRPTEDSKEFS [IFNGR1] | -0.126 | 55.3 | 0.103 | 
UBE2D3 | 0.0226 |  | 0.585 | 49.5
MATKDPTAVERANLLNMAKLSIKGLIESALSFGRTLDSDYPPLQQFFVVMEHCLKHGLKVRKSFLSYNKTIWGPLELVEKLYPEAEEIGASVRDLPGLKTPLGRARAWLRLALMQKKMADYLRCLIIQRDLLSEFYEYHALMMEEEGAVIVGLLVGLNVIDANLCVKGEDLDSQVGVIDFSMYLKNEEDIGNKERNVQIAAILDQKNYVEELNRQLNSTVSSLHSRVDSLEKSNTKLIEELAIAKNNIIKLQEENHQLRSENKLILMKTQQHLEVTKVDVETELQTYKHSRQGLDEMYNEARRQLRDESQLRQDVENELAVQVSMKHEIELAMKLLEKDIHEKQDTLIGLRQQLEEVKAINIEMYQKLQGSEDGLKEKNEIIARLEEKTNKITAAMRQLEQRLQQAEKAQMEAEDEDEKYLQECLSKSDSLQKQISQKEKQLVQLETDLKIEKEWRQTLQEDLQKEKDALSHLRNETQQIISLKKEFLNLQDENQQLKKIYHEQEQALQELGNKLSESKLKIEDIKEANKALQGLVWLKDKEATHCKLCEKEFSLSKRKHHCRNCGEIFCNACSDNELPLPSSPKPVRVCDSCHALLIQRCSSNLP [RUFY2] | -0.122 | 49.3 | -0.00835 | 49.1
MAERPEDLNLPNAVITRIIKEALPDGVNISKEARSAISRAASVFVLYATSCANNFAMKGKRKTLNASDVLSAMEEMEFQRFVTPLKEALEAYRREQKGKKEASEQKKKDKDKKTDSEEQDKSRDEDNDEDEERLEEEEQNEEEEVDN [POLE3] | 0.5 |  | 0.357 | 49.2
MSAHSMLCERIAIAKELIKRAESLSRSRKGGIEGGAKLCSKLKAELKFLQKVEAGKVAIKESHLQSTNLTHLRAIVESAENLEEVVSVLHVFGYTDTLGEKQTLVVDVVANGGHTWVKAIGRKAEALHNIWLGRGQYGDKSIIEQAEDFLQASHQQPVQYSNPHIIFAFYNSVSSPMAEKLKEMGISVRGDIVAVNALLDHPEELQPSESESDDEGPELLQVTRVDRENILASVAFPTEIKVDVCKRVNLDITTLITYVSALSYGGCHFIFKEKVLTEQAEQERKEQVLPQLEAFMKDKELFACESAVKDFQSILDTLGGPGERERATVLIKRINVVPDQPSERALRLVASSKINSRSLTIFGTGDTLKAITMTANSGFVRAANNQGVKFSVFIHQPRALTESKEALATPLPKDYTTDSEH [C7ORF25] | 0.0164 | 50 | 0.0643 | 50.1
MAAAEEGCSVGAEADRELEELLESALDDFDKAKPSPAPPSTTTAPDASGPQKRSPGDTAKDALFASQEKFFQELFDSELASQATAEFEKAMKELAEEEPHLVEQFQKLSEAAGRVGSDMTSQQEFTSCLKETLSGLAKNATDLQNSSMSEEELTKAMEGLGMDEGDGEGNILPIMQSIMQNLLSKDVLYPSLKEITEKYPEWLQSHRESLPPEQFEKYQEQHSVMCKICEQFEAETPTDSETTQKARFEMVLDLMQQLQDLGHPPKELAGEMPPGLNFDLDALNLSGPPGASGEQCLIM [G3V3G9] | -0.158 | 51.3 | -0.172 | 51.1
MVGPAPRRRLRPLAALALVLALAPGLPTARAGQTPRPAERGPPVRLFTEEELARYGGEEEDQPIYLAVKGVVFDVTSGKEFYGRGAPYNALTGKDSTRGVAKMSLDPADLTHDTTGLTAKELEALDEVFTKVYKAKYPIVGYTARRILNEDGSPNLDFKPEDQPHFDIKDEF [NENF] | -0.0192 | 52.4 | 0.423 | 55.3
MKAVKSERERGSRRRHRDGDVVLPAGVVVKQERLSPEVAPPAHRRPDHSGGSPSPPTSEPARSGHRGNRARGVSRSPPKKKNKASGRRSKSPRSKRNRSPHHSTVKVKQEREDHPRRGREDRQHREPSEQEHRRARNSDRDRHRGHSHQRRTSNERPGSGQGQGRDRDTQNLQAQEEEREFYNARRREHRQRNDVGGGGSESQELVPRPGGNNKEKEVPAKEKPSFELSGALLEDTNTFRGVVIKYSEPPEARIPKKRWRLYPFKNDEVLPVMYIHRQSAYLLGRHRRIADIPIDHPSCSKQHAVFQYRLVEYTRADGTVGRRVKPYIIDLGSGNGTFLNNKRIEPQRYYELKEKDVLKFGFSSREYVLLHESSDTSEIDRKDDEDEEEEEEVSDS [SNIP1] | 0.493 | 49.8 | -0.985 | 
ARSB | -0.198 | 57.3 | 0.364 | 56.3
MSEVSCKKRDDYLEWPEYFMAVAFLSAQRSKDPNSQVGACIVNSENKIVGIGYNGMPNGCSDDVLPWRRTAENKLDTKYPYVCHAELNAIMNKNSTDVKGCSMYVALFPCNECAKLIIQAGIKEVIFMSDKYHDSDEATAARLLFNMAGVTFRKFIPKCSKIVIDFDSINSRPSQKLQ [DCTD] | 0.0667 | 58.5 | 0.419 | 59.8
MSGIKRTIKETDPDYEDVSVALPNKRHKAIENSARDAAVQKIETIIKEQFALEMKNKEHEIEVIDQRLIEARRMMDKLRACIVANYYASAGLLKVSEGSKTCDTMVFNHPAIKKFLESPSRSSSPANQRAETPSANHSESDSLSQHNDFLSDKDNNSNMDIEERLSNNMEQRPSRNTGRDTSRITGSHKTEQRNADLTDETSRLFVKKTIVVGNVSKYIPPDKREENDQSTHKWMVYVRGSRREPSINHFVKKVWFFLHPSYKPNDLVEVREPPFHLTRRGWGEFPVRVQVHFKDSQNKRIDIIHNLKLDRTYTGLQTLGAETVVDVELHRHSLGEDCIYPQSSESDISDAPPSLPLTIPAPVKASSPIKQSHEPVPDTSVEKGFPASTEAERHTPFYALPSSLERTPTKMTTSQKVTFCSHGNSAFQPIASSCKIVPQSQVPNPESPGKSFQPITMSCKIVSGSPISTPSPSPLPRTPTSTPVHVKQGTAGSVINNPYVIMDKQPGQVIGATTPSTGSPTNKISTASQVSQGTGSPVPKIHGSSFVTSTVKQEDSLFASMPPLCPIGSHPKVQSPKPITGGLGAFTKVIIKQEPGEAPHVPATGAASQSPLPQYVTVKGGHMIAVSPQKQVITPGEGIAQSAKVQPSKVVGVPVGSALPSTVKQAVAISGGQILVAKASSSVSKAVGPKQVVTQGVAKAIVSGGGGTIVAQPVQTLTKAQVTAAGPQKSGSQGSVMATLQLPATNLANLANLPPGTKLYLTTNSKNPSGKGKLLLIPQGAILRATNNANLQSGSAASGGSGAGGGGGGGGGGGSGSGGGGSTGGGGGTAGGGTQSTAGPGGISQHLTYTSYILKQTPQGTFLVGQPSPQTSGKQLTTGSVVQGTLGVSTSSAQGQQTLKVISGQKTTLFTQAAHGGQASLMKISDSTLKTVPATSQLSKPGTTMLRVAGGVITTATSPAVALSANGPAQQSEGMAPVSSSTVSSVTKTSGQQQVCVSQATVGTCKAATPTVVSATSLVPTPNPISGKATVSGLLKIHSSQSSPQQAVLTIPSQLKPLSVNTSGGVQTILMPVNKVVQSFSTSKPPAILPVAAPTPVVPSSAPAAVAKVKTEPETPGPSCLSQEGQTAVKTEESSELGNYVIKIDHLETIQQLLTAVVKKIPLITAKSEDASCFSAKSVEQYYGWNIGKRRAAEWQRAMTMRKVLQEILEKNPRFHHLTPLKTKHIAHWCRCHGYTPPDPESLRNDGDSIEDVLTQIDSEPECPSSFSSADNLCRKLEDLQQFQKREPENEEEVDILSLSEPVKINIKKEQEEKQEEVKFYLPPTPGSEFIGDVTQKIGITLQPVALHRNVYASVVEDMILKATEQLVNDILRQALAVGYQTASHNRIPKEITVSNIHQAICNIPFLDFLTNKHMGILNEDQ [YEATS2] | 0.161 | 49.7 | -0.495 | 51.4
